Laboratory results published in US20080131422A1 (JURIDICAL FOUNDATION THE CHEMO SERO THERAPEUTIC RESEARCH …, published 2008).

Molecular target: T1, Aβ42 peptide (amyloid β peptide 1-42), soluble (UniProt P05067 672-713)
T1 construct: domain: Aβ1-42; also called Aβ1-42; soluble Aβ42 peptide
Assay: ELISA; tat-VL coated, Aβ42 peptide at 100 ng/well, anti-Aβ42 monoclonal antibody detection

T1 sequence (P05067 672-713 limits assumed): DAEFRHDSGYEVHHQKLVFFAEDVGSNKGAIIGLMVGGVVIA

B1: tat peptide-fused human-derived anti-Aβ42 peptide VL chain (other)
chain: MGYGRKKRRQRRRGDIVMTQSPDSLAVSLGERATINCKSSQSVIHNSNVKNCLAWYQQKLGQPPNLLIYWASTRESGVPDRFSGSGSGTDFTLKISRVEAEDVGVYYCMQSIQLPRTFGQGTKVEIKR
notes: also called tat-VL chain; tat peptide-fused VL chain
B1: binds.
